The values below come from patent US20200399381A1 (I MAB BIOPHARMA US, published 2020).

By Kd is commonly meant the concentration at which binding is half-saturated. A high value points to lower affinity. As a reminder, the koff is the rate constant with which the complex falls apart. Low readings indicate slow dissociation, high ones fast dissociation. In general, kon refers to a measure of how fast the partners come together. A higher kon goes with fast association.

In the assay the target is T1, human IFNAR-1 protein (form not stated) (human, UniProt P17181 28-436, limits assumed).
T1 construct: bispecific ELISA
T1 sequence (looked up): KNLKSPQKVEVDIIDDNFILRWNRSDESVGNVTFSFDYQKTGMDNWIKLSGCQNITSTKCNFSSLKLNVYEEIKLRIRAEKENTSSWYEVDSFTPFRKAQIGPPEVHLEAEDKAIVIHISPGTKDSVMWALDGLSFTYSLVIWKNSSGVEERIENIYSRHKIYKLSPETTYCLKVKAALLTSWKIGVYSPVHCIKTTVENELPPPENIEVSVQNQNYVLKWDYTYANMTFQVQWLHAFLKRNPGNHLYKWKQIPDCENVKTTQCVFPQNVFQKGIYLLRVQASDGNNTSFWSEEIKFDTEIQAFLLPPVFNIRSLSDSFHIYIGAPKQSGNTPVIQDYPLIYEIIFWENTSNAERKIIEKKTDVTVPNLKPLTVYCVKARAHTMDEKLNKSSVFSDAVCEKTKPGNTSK
Briefly: affinity ranking of expressed humanized 8G11 IgGs (method not named).

B1: 8G11 humanized VH3 + VL2 (antibody, V domains shown)
VH: QVQLVQSGAEVVKPGASVKVSCKGSGFNIKDYYMHWVKQAPGQGLEWIGRIDPEDAETKYAPKFQGRVTITADTSTSTVYLELSSLRSEDTAVYYCARGGNFYVMDYWGQGTLVTVSS
VL: DIQLTQSPSFLSTSVGDRVTITCKASQNVGTNVVWYQQKPGKSPKVLIYSASYRVSGVPSRFSGSGSGTEFTLIISSLQPEDFATYYCQQKNNYPYTFGQGTKLEIK
notes: Humanized IgG expressed in HEK293; also called VH3 + VL2 (8G11)
B1 returned a Kd of 389 pM, an off-rate (koff) of 0.000111 s⁻¹ and a kon of 284000 M⁻¹ s⁻¹.

B2: 8G11 humanized VH4 + VL4 (antibody, V domains shown)
VH: QVQLVQSGAEVVKPGASVKLSCKGSGFNIKDYYMHWVKQAPGQGLEWIGRIDPEDAETKYAPKFQGRATITADTSTSTAYLELSSLRSEDTAVYYCARGGNFYVMDYWGQGTLVTVSS
VL: DIQMTQSPSFLSTSVGDRVTVTCKASQNVGTNVVWYQQKPGKSPKVLIYSASYRVSGVPSRFSGSGSGTEFTLIISSVQPEDFATYFCQQKNNYPYTFGQGTKLEIK
notes: Humanized IgG expressed in HEK293; also called VH4 + VL4 (8G11)
Molecule B2 yielded an equilibrium dissociation constant (Kd) of 372 pM, a koff of 0.000105 s⁻¹ and a kon of 283000 M⁻¹ s⁻¹.

B3: 8G11 humanized VH4 + VL2 (antibody, V domains shown)
VH: QVQLVQSGAEVVKPGASVKLSCKGSGFNIKDYYMHWVKQAPGQGLEWIGRIDPEDAETKYAPKFQGRATITADTSTSTAYLELSSLRSEDTAVYYCARGGNFYVMDYWGQGTLVTVSS
VL: DIQLTQSPSFLSTSVGDRVTITCKASQNVGTNVVWYQQKPGKSPKVLIYSASYRVSGVPSRFSGSGSGTEFTLIISSLQPEDFATYYCQQKNNYPYTFGQGTKLEIK
notes: Humanized IgG expressed in HEK293; also called VH4 + VL2 (8G11)
B3 showed a Kd of 332 pM, a koff of 9.69e-05 s⁻¹ and an association rate constant (kon) of 292000 M⁻¹ s⁻¹.

B4: 8G11 humanized VH3 + VL4 (antibody, V domains shown)
VH: QVQLVQSGAEVVKPGASVKVSCKGSGFNIKDYYMHWVKQAPGQGLEWIGRIDPEDAETKYAPKFQGRVTITADTSTSTVYLELSSLRSEDTAVYYCARGGNFYVMDYWGQGTLVTVSS
VL: DIQMTQSPSFLSTSVGDRVTVTCKASQNVGTNVVWYQQKPGKSPKVLIYSASYRVSGVPSRFSGSGSGTEFTLIISSVQPEDFATYFCQQKNNYPYTFGQGTKLEIK
notes: Humanized IgG expressed in HEK293; also called VH3 + VL4 (8G11)
With B4, binding was put at a Kd of 401 pM, the koff was found to be 0.000113 s⁻¹ and the on-rate (kon) was determined as 281000 M⁻¹ s⁻¹.

B5: 8G11 humanized VH4 + VL1 (antibody, V domains shown)
VH: QVQLVQSGAEVVKPGASVKLSCKGSGFNIKDYYMHWVKQAPGQGLEWIGRIDPEDAETKYAPKFQGRATITADTSTSTAYLELSSLRSEDTAVYYCARGGNFYVMDYWGQGTLVTVSS
VL: DIQLTQSPSFLSASVGDRVTITCKASQNVGTNVVWYQQKPGKAPKLLIYSASYRVSGVPSRFSGSGSGTEFTLTISSLQPEDFATYYCQQKNNYPYTFGQGTKLEIK
notes: Humanized IgG expressed in HEK293; also called VH4 + VL1 (8G11)
Molecule B5 came in with a dissociation constant (Kd) of 489 pM, a dissociation rate constant (koff) of 9.94e-05 s⁻¹ and a kon of 203000 M⁻¹ s⁻¹.
